Laboratory results from the Immune Epitope Database (IEDB).
pKd: −log10 of the molar value.

Columns and labels:
HLA-A*25:01 = test: IEDB peptide-MHC binding, purified MHC/direct/fluorescence; filed as Kd, often an IC50 or EC50 that approximates it; ≥ and ≤ were set here for values at or beyond the usual limits of such assays; conditions: source organism: West Nile virus strain PTRoxo
HLA-A*29:02 = test: as above; conditions: source organism: West Nile virus strain PTRoxo
HLA-A*30:01 = test: as above; conditions: source organism: West Nile virus strain PTRoxo
HLA-A*80:01 = test: as above; conditions: source organism: West Nile virus strain PTRoxo
HLA-B*15:01 [1] = test: as above; conditions: source organism: West Nile virus strain PTRoxo
HLA-B*18:01 [2] = test: as above; conditions: source organism: West Nile virus strain PTRoxo
HLA-B*44:02 = test: as above; conditions: source organism: West Nile virus strain PTRoxo
HLA-B*51:01 = test: as above; conditions: source organism: West Nile virus
HLA-B*57:01 = test: as above; conditions: source organism: West Nile virus strain PTRoxo
HLA-B*58:01 = test: as above; conditions: source organism: West Nile virus strain PTRoxo
HLA-A*26:01 = test: IEDB peptide-MHC binding, purified MHC/competitive/fluorescence; filed as Kd, often an IC50 or EC50 that approximates it; ≥ and ≤ were set here for values at or beyond the usual limits of such assays
HLA-A*01:01 = test: as above; conditions: source organism: Human immunodeficiency virus 1
HLA-A*11:01 = test: as above; conditions: source organism: Human immunodeficiency virus 1
HLA-A*26:02 = test: as above; conditions: source organism: Human immunodeficiency virus 1
HLA-A*26:03 = test: as above; conditions: source organism: Human immunodeficiency virus 1
HLA-B*08:01 = test: as above; conditions: source organism: Human immunodeficiency virus 1
HLA-B*08:03 = test: as above; conditions: source organism: Human immunodeficiency virus 1
HLA-B*15:01 [3] = test: as above; conditions: source organism: Human immunodeficiency virus 1
HLA-B*15:09 = test: as above; conditions: source organism: Human immunodeficiency virus 1
HLA-B*18:01 [4] = test: as above; conditions: source organism: Human immunodeficiency virus 1
HLA-A*24:02 = test: as above; conditions: source organism: Hepacivirus hominis
HLA-B*15:42 = test: as above; conditions: source organism: Hepacivirus hominis
HLA-B*45:06 = test: as above; conditions: source organism: Hepacivirus hominis
HLA-B*83:01 = test: as above; conditions: source organism: Hepacivirus hominis

Sequence: EIPDVLNSL
- pKd (HLA-A*25:01): 7.64
- pKd (HLA-A*29:02): ≤ 4.70
- pKd (HLA-A*30:01): ≤ 4.70
- pKd (HLA-A*80:01): ≤ 4.70
- pKd (HLA-B*15:01 [1]): ≤ 4.70
- pKd (HLA-B*18:01 [2]): ≤ 4.70
- pKd (HLA-B*44:02): ≤ 4.70
- pKd (HLA-B*51:01): ≤ 4.70
- pKd (HLA-B*57:01): ≤ 4.70
- pKd (HLA-B*58:01): ≤ 4.70
- pKd (HLA-A*26:01; source organism: West Nile virus): 6.56

Sequence: GTEEIKSLY
- pKd (HLA-A*01:01): 7.86
- pKd (HLA-A*11:01): ≤ 4.70
- pKd (HLA-A*26:01; source organism: Human immunodeficiency virus 1): 5.80
- pKd (HLA-A*26:02): 5.92
- pKd (HLA-A*26:03): ≤ 4.70
- pKd (HLA-B*08:01): ≤ 4.70
- pKd (HLA-B*08:03): ≤ 4.70
- pKd (HLA-B*15:01 [3]): ≤ 4.70
- pKd (HLA-B*15:09): ≤ 4.70
- pKd (HLA-B*18:01 [4]): 7.11

Sequence: LLPRRGPRL
- pKd (HLA-A*24:02): 7.05
- pKd (HLA-B*15:42): ≤ 5.30
- pKd (HLA-B*45:06): ≤ 5.30
- pKd (HLA-B*83:01): ≤ 5.30
